From patent US20220281949A1 come the findings set out here.

In test [1] the target is DR1-restricted TCR HA1.7. Put plainly: flow cytometry: HA1.7-transduced primary CD4+ T cells stained with PE wild-type DR1 dextramer and anti-CD4.
For test [2], the target named is DR1-restricted TCR HA1.7. Put plainly: flow cytometry: TCR-transduced primary human T cells stained with PE class II dimer and anti-CD4. A general note: Flow cytometry measures light scatter and fluorescence of single cells or particles in a stream.

Regarding CLIP, DR1 dextramer (peptide-MHC), the percent of cells in the dextramer+ CD4+ quadrant in test [1] worked out at 0.1%.

“Control (DR1 L114W/V143M+2reps dimer) (peptide-MHC)”: in test [2], the percent of cells in the dimer+ CD4+ quadrant stood at 0.1%.
